Reference: doi:10.1101/410217 (bioRxiv, 2018)

Target: T1, human parechovirus 3 (HPeV3) isolate A308/99 virion (Human parechovirus 3, isolate A308/99, strain)
T1 chain 1: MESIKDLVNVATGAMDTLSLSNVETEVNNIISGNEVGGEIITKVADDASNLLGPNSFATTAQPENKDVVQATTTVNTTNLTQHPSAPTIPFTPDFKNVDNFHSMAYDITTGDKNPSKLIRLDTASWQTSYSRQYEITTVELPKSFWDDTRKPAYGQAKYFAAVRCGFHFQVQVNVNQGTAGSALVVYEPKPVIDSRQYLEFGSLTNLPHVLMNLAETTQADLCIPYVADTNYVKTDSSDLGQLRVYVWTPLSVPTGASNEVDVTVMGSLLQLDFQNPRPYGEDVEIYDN
T1 chain 2: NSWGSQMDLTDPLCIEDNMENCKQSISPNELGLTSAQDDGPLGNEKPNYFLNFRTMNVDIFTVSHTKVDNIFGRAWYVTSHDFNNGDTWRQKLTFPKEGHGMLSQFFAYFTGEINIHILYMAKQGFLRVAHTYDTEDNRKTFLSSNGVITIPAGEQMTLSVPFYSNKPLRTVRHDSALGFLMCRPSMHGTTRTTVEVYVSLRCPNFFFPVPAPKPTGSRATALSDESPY
T1 chain 3: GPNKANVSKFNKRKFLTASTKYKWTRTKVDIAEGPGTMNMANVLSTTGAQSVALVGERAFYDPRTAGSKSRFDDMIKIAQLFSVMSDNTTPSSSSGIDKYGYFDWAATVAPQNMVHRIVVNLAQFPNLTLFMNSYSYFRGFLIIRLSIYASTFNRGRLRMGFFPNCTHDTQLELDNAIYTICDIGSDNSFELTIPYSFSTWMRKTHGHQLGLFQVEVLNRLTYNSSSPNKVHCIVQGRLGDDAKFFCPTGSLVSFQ
Assay: cryo-EM structure

B1: Fab fragment of human monoclonal antibody AT12-015 (Fab, V domains shown)
VH: EVQLLESGGGLVQPGGSLRLSCAASGFTFSSYAMSWVRQAPGKGLEWVSAISGGGDSRYYADSVKGRFTISRDNSKNTLYLQMNSLGAEDTALYYCAKRLGRVAEYYFDYWGQGTLVTVSP
VL: DIQMTQSPSTLSASVGDRVTITCRTSQSISNWLAWYQQKPGKAPKLLIYQASTLENGVPSRFTGSGSGTEFSLTISSLQPDDFATYYCQQYNNYMALTFGGGTKVEIK
stoichiometry N: 60 Fab per virion
